These results are taken from patent US20160024196A1 (Amgen, published 2016).

The target of experiment [1] is T1, murine SFRP5 (mouse, UniProt Q9WU66 22-314, limits assumed).
T1 construct: also called mouse SFRP5; muSFRP5
T1 sequence: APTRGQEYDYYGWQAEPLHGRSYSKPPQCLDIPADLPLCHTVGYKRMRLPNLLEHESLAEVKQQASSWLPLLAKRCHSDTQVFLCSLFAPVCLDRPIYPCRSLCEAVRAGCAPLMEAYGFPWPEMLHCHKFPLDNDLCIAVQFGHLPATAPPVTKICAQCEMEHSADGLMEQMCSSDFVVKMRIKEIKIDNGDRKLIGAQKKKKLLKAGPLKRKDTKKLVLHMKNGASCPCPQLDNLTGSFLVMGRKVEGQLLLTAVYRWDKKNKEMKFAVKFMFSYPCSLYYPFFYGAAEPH
Briefly: kinetics; method not stated (Table 12, repeats Table 8).

Experiment [2] has as its target T1, murine SFRP5. Briefly: kinetics; method and SFRP5 construct not stated (Table 8).

B1: anti-SFRP5 monoclonal antibody subclone 24C18.3 (antibody, IgG2b, V domains shown)
VH: QVQLTQSGAELVRPGASVKLSCKASGYTFTDYYINWVKQRPGQGLEWIARIYPGSGNTYYNEKFKGKATLTAEKSSSTAYMQLSSLTSEDSAVYFCAAYSASAMDYWGQGTSVTVSS
VL: NVVLTQSPASLAVSLGQRATISCRASESVDSYGKSFMYWYQQKPGQPPKLLIYLANNLESGVPARFSGSGSRTDFTLTIDPVEADDAASYYCQQNNEDPWTFGGGTKLEIK
notes: also called mu24C18.3
In experiment [1], B1 gave a Kd of 0.658 nM, a koff of 7.36e-05 s⁻¹ and a kon of 112000 M⁻¹ s⁻¹. In experiment [2], this molecule returned a Kd of 0.658 nM, a koff of 7.36e-05 s⁻¹ and a kon of 112000 M⁻¹ s⁻¹.

As a reminder, the Kd is the constant that tells how readily two partners part at equilibrium. Usually koff stands for the rate constant with which the complex falls apart. A lower koff goes with a long-lived complex. What is called kon is a measure of how fast the partners come together.
